Source: the DeepSol protein solubility set

Assay: soluble on expression in E. coli; label from the status in PepcDB or PDB records

Sequence	soluble on expression in E. coli
MGSIIFLEDRAFQGRIYGCTTDCPNLQPYFSRCNSIVVQSGCWMIYERPNYQGHQYFLRRGEYPDYQQWMGLSDSIRSCCLIPPHSGAYRMKIYDRDELRGQMSELTDDCLSVQDRFHLTEIHSLNVLEGSWILYEMPNYRGRQYLLRPGEYRRFLDWGAPNAKVGSLRRVMDLYLEHHHHHH	soluble
ELLPEIFRQTVEHAPIAISITDLKANILYANRAFRTITGYGSEEVLGKNESILSNGTTPRLVYQALWGRLAQKKPWSGVLVNRRKDKTLYLAELTVAPVLNEAGETIYYLGMHRDTSELH	soluble
MKLRLSALALGTTLLVGCASSGTDQQGRSDPLEGFNRTMYNFNFNVLDPYIVRPVAVAWRDYVPQPARNGLSNFTGNLEEPAVMVNYFLQGDPYQGMVHFTRFFLNTILGMGGFIDVAGMANPKLQRTEPHRFGSTLGHYGVGYGPYVQLPFYGSFTLRDDGGDMADGLYPVLSWLTWPMSVGKWTLEGIETRAQLLDSDGLLRQSSDPYIMVREAYFQRHDFIANGGELKPQENPNAQAIQDDLKDIDSE	not soluble
DDGDCKNIYRYSPKDGKFEKLNLETDVTSAFALSEYNPGIAAYIGQSDYNAGVAYLYDMKKKTSSLLADPMKPILEKIELGKTEPWNFTASDGTVITGKMCLPPNFDPNKKYPMIVYYYGGTTPTTRGISNPYCAQLFASRDYVVYVIQPSGTIGFGQEFSARHVNAWGKRTADDIIEGTKQFCKEHPFVDEKKIGCLGASYGGFMTQYLQTQTDIFAAAVSHAGISDVTSYWGEGYWGYSYNAIAAADSYPWKDPDLFTKQGSLFNADKINTPLLLLHGTVDTNVPIGESIQLFNALKILGKTVEFVTVDGENHFISDYDKRIKWHNSIMAWFARWLQ	not soluble
MKVELVFIPSPGVGHIRATTALAKLLVASDNRLSVTLIVIPSRVSDDASSSVYTNSEDRLRYILLPARDQTTDLVSYIDSQKPQVRAVVSKVAGDVSTRSDSRLAGIVVDMFCTSMIDIADEFNLSAYIFYTSNASYLGLQFHVQSLYDEKELDVSEFKDTEMKFDVPTLTQPFPAKCLPSVMLNKKWFPYVLGRARSFRATKGILVNSVADMEPQALSFFSGGNGNTNIPPVYAVGPIMDLESSGDEEKRKEILHWLKEQPTKSVVFLCFGSMGGFSEEQAREIAVALERSGHRFLWSLRRASPVGNKSNPPPGEFTNLEEILPKGFLDRTVEIGKIISWAPQVDVLNSPAIGAFVTHCGWNSILESLWFGVPMAAWPIYAEQQFNAFHMVDELGLAAEVKKEYRRDFLVEEPEIVTADEIERGIKCAMEQDSKMRKRVMEMKDKLHVALVDGGSSNCALKKFVQDVVDNVP	soluble
MGSDKIHHHHHHMENIMLQEIELKLAISPQIGIELPQYLAKFTILEHQNLFLGNTYYDYPDHFLAKQKMGLRIRQEDQELTLTLKTNGKVVSGLHSRPEYNLPLIEKETPTNAQLRGLYPFEQLPSSTLQPIFSTDFNRTFWLVEFQQSKIEVAFDQGKIIAGEYEQPISEIEFELKSGNVQDLFDFVETLPFERDIYFSSASKAKRGYLLGSKQFLTDWLNKWRDFLKEEREESAVDFCAKFNAVLKMEQKLLEETLSFSPTLFSQDFMKTVERVGAFFNLYHYYDENGKILEAMATEKQKETRLPALLESNQKIFVEIRDLIRFHSETKDNEKTIEKLTALLKSRVYFERMIKLMELSYDLG	not soluble
MTRHGKNSTAASVYTYHERRRDAKASGYGTLHARLGADSIKEFHCCSLTLQPCRNPVISPTGYIFDREAILENILAQKKAYAKKLKEYEKQVAEESAAAKIAEGQAETFTKRTQFSAIESTPSRTGAVATPRPEVGSLKRQGGVMSTEIAAKVKAHGEEGVMSNMKGDKSTSLPSFWIPELNPTAVATKLEKPSSKVLCPVSGKPIKLKELLEVKFTPMPGTETAAHRKFLCPVTRDELTNTTRCAYLKKSKSVVKYDVVEKLIKGDGIDPINGEPMSEDDIIELQRGGTGYSATNETKAKLIRPQLELQ	soluble
MGSDKIHHHHHHMLNIVVVAHPDDEILGFGATGAKLAAKGEVVQPIILCGSVDARTLRPTDEELHSDMLKANSLVGFSKPVLGDFPNISMNTVPHVELVQFIEEQIKKFRPNRIFTHHPNDLNNDHTQVSNACLAASRLFQRRNDLPALEALYFMEILSSTDWAFPAVGDGFKPTTFVEITCELEKKLAALHHYRNVMRPFPHPRSDEVVTGLAAYRGGQAGLKYAEAFQLVFKQGV	not soluble
MIVILDNGGQYVHRIHRSLKYIGVSSKIVPNTTPLEEIESNKEVKGIILSGGPDIEKAKNCIDIALNAKLPILGICLGHQLIALAYGGEVGRAEAEEYALTKVYVDKENDLFKNVPREFNAWASHKDEVKKVPEGFEILAHSDICQVEAMKHKTKPIYGVQFHPEVAHTEYGNEILKNFCKVCGYKFE	soluble
MGFFSGQFSNVVEWEEFREDMIFWKWHNREIKRGSKLIIRPGQDAIFLFNGRIEGIFKDEGDYDIESQIIPFLSTLQGFKFGFNSGMRAEVLFVNTKEFTAKWGTKSAINIPTPQLPGGIPIRANGTFTFKVNDYVKLIDRIAGVKDSFLVEDVRLRIMALLDQLMMKWIVQEGRDMFNLQSNSFAIADGLKTDLDMQIYDMGITVSQLTIMSFTYPEEIQQMIAKAASHTMIGDMGRYQQVSVLDGIAGGKLEHHHHHH	not soluble
MSLKIKFKRLDYQEQCRDQILGVFKGIDLKEPENDAQRISNPVFEIGAIKDLLLENIENLRSKQKITQGSVGIDKSLNCDILMETGTGKTFCFLECVYALHKNHHLSKFIVLTPSNAIKLGVLKSVEITREFFKSEYSNTHLESYEDIERFILASNHKCCVLVMTFSAFNKEKNTINKSCLENTNLFNGATSYMQALVSMRPIVIMDEPHRFLGDKTKKYLEQLNALLTLRFGATFKDDYNNLIYTLDSKKAFDCALVKSISVASVGESNECFLELKGIEKKEAAINYTDLENKTQSVKVKEHDNLGVVTQISALEDYIVEKITKTEIRFLNGFNLLLDQKEPFSHLLEGEQEVMLKEAIKSHFEREEGLFKKGIKALCMVFISGVNSYLSENEKPAKLALLFEKLYQQKLEEVLKKPLDENYRAYLECTREDIKKVHGGYFAKSKKEGDETKTIELILKEKEKLLSFDSDLRFIFSQWALQEGWDNPNVMTICKLAPSHSNITKLQQIGRGLRLAVNDKGERITKEHADFDFVNELVVIVPQVEGDFVGAIQQEISEHSLIKQEFSAEELEKSGVVKKGRYGFLLETLEGLGFGEKTGDENFKLTLNQNEFLEKEPELEKLKDEKYLDFEKLKDFLKDRLIGNSRVRDKNERKSEKIKINKENFKKFETLWESLNHQARIAYAIDSESLIDEIVKNINSSFNVSSKIVSVTTHKKVETMGNNAKTEIFERENACVWSLHEFISALSNKVKLSFKSVAKVLENIDENKFNEIKKNEQEGLRRLEELFLEIIYQNIKDKISYQMRETTIKNRKNDAFYDEKGEIREFLDGSLGADKYEIKNSSVREKCLYENFMQVDSEIEKDTIEESNDTKIIVFGKLPRVKIPIGLNQTYSPDFGYVVENNDKKVLLVVETKGVDKKSELRPEEERKISTAKKFFEALKKQGVNIEYKTKMEKDQLSALINEVLNRKDEGHHHHHH	not soluble
MTEAGASIVVTVKNEGKNLRELLESIEKNDFTNFETVVVDDLSTDDTEDIVKSYRFTVYKRIACSRGEGRNIGVDLSRYGYILFTDGDAKVSEHWISGMVSALAAGNDAVIGNTLYTGKRRYMQERVKIFLEGIEVTAPSVNLAYRKDRFRQLGGFDPKFVTAEDIDLNIRAVKAGFRFATCDSCVVYAKVRENLASFLRQAYWNGYGRYQLEMKHPGITRNTRVRLGHNFFDFLHMVSGAAGYLSARISEGKQGRLEHHHHHH	soluble
GEFPLQTKTDIHAVLASNGRIIYISANSKLHLGYLQGEMIGSFLKTFLHEEDQFLVESYFYNEHHLMPCTFRFIKKDHTIVWVEAAVEIVTTRAERTEREIILKMKVLEEE	soluble
MEERELVEYFRGQIREDPDVASAVAAIRSLLEFLKRDQSETILGLRENMTQAIHRLQEADPSVAVSSGGELFLRFISLTSLEHPDLSQCKNVMIERGELFLKKISLSRGKVGKLCHTFIKDGAKILTHSSSRVVLKVLENAAADNKRFTVKLMAEKLRKLSIPVTVVLDAAVGYILEKVDLVIVGAEGVVESGGVINKIGTYQMAVCSKAHNKPFYVVAESFKFVRLYPLNQQDVPDRFKYKADVLKTAEDLNQEHPLIDYTPSSLITLLFTDLGVLTPSAVSDELIKLYL	soluble
MIQIEDVVVSFDVLREKFLCNLDACKGECCIEGDAGAPVELDEVEKLEEVLPIIWEELSPEARAVIEKQGVVYTDQEGDLVTSIVNNKDCVFTCYDEKGCCYCAIEKAYRDGKTDFYKPVSCHLYPIRIGDYGPYKAVNYHRWDVCKAAVLLGKKENVAVYQFLKEPLIRKFGEKWYQELEVAVKELKAHDMI	not soluble
MGSDKIHHHHHHMDAILMSLMTALNEHLLINVYQRDTDDFYTGYVQVLGHDAVVLGTYNDSGIADGCALIAFSAIDQVEFAGDDLDSMNFRINLAQAQHFLTLQGQEKPLQFDATQNLIQQLATQAKANGQMVMVVVADDDAYLEGQVTAVAEDRFSMAIFNKFNYTDVRALQVDFSDILVMEFHGLDLKLETELVWQRDHLKHVATKLYQNDGQLAGVFQNALANNRLISVVPKGPEDQFFVGRVKAVNDRVVVLSLKDMAGQFGGYILLTLPSIQNVATASDYLQTISFYEKWDQTHHFSQQPVLNADREFDPNDDLIRTIISEAAGFERVVRIKVADSDEHFLGYPENVGETDFDLNLVGPDDGETAQIRYGQIREIAFGHIFAYLQEAQLKNAGR	not soluble
MGSDKIHHHHHHMNDKEFGQRVRQLRESASMTREQFCDDELELSVRQLTRIEAGASKPTFSKIQYIATRLGMGLYELMPDYVSLPERYSKLKFDVLRTPTYGNEDLAEKRDAMMTEIYDDYYDELPEEEKIVVDTLCSLFDVLDTDSQEYGKEILDDYLHQSYHRSKLSINDLMILRLFIEHCQLEDLSVGTSNYALFTDLIEKLPQSIYDVHSESLFIVRDLFLAIVRILFSKELYNHIPVYIEKIENIMELSQDFQKKPILNLVKWKYELKVQHNHEIAERYYNEAITFASLLNQFHLKEKLQMEWEKDTQSLKR	not soluble
MDTLKRGKYAKFLHNYLVDNSSQRGYVLNLNAQWGAGKTYFINRWIDSIKDAHPVVYIDAWKQDYSDDPMLTVVSSIIDALEEHLPAGNKKAIALKNKATRFFKAAAPLLMKGLIKKATGMNIDDVEPETEKKEGSDLYNLTGEASAALAKCLIDDHNEKLKTVEHLRSDIKSLIEALDPKKKLKLPAFIFIDELDRCRPSYAVEMLEVIKHFFELENIVFVVATDTEQLQHAVKAVYGEGFDAQTYLGRFFRRRYSLSESSRFEFVKQMVGESYEIKSLEHHHHHH	not soluble
MGSDKIHHHHHHMRVIKVKTISETLDYISKHTASVARFGDGEIDIIAGNSIPYQVYASALAARLERLLNRQSNEKLVICVSDVFDNLGRYNDFSQQFWRDHLYQYNDLYQKNCQAEWYGSTFISRPYMDLLDKSLSVTYFEQLKALWKNKDILIVEGETSRSGVGNDLFNDANTISRIICPSKDAFSSFYEIKETILEHSRGKLILLMLGPTAKLLAEDLSQLGHQAIDLGHIDSEYEWFKMGAVSKVKLSHKHTAEHNFDEDITLIEDNSYENQIVSKIGTSDRQYALTVTLTDDIWELEHLLQRCPNTDFHIAAPVYCSDRLKQLVGYPNYYLHEAITEEQFEVLLLNSDIYLDINHGEEVWNVVDRCITEGKTIYGIRRARKDNQYISFERTMDDFEYLCDTIKQNR	not soluble
